{
  "source": "patent US20170306002A1",
  "about": "(UNITED STATES OF AMERICA AS REPESENTED BY THE SECRETARY …, published 2017)",
  "binders": {"B1": {"name": "mAb CD6 (whole IgG) (antibody, V domains shown)", "VH": "QVKLQESGGGLVQPKGSLKLSCAASGFTFNTYAMNWVRQAPGKGLEWVARIRSKSNNYATFYADSVKDRFTISRDDSQSMLYLQMHNLKTDDTAMYYCVRPSIYYYASGYLDVWGAGTTVTVSS", "VL": "QIVLSQSPAILSASPGEKVTMTCRTSSSVSYMHWYQQKPGSSPKPWIYATSNLASGVPFRFSGSGSGTSYSLTISRVEAEDAATYYCQQWNSNPPTFGGGTKLEIKR"}},
  "target": "recombinant CA/09 NA protein (baculovirus, with N-terminal His-tag, tetramerization domain and thrombin site) (human; influenza A virus …, UniProt P50552 336-380)",
  "sequence (P50552 336-380)": "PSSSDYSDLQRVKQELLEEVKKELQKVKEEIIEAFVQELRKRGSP",
  "data": [
    {"binder": "B1", "values": [
      {"measurement": "Kd", "result": "~95", "unit": "nM"}
    ]}
  ]
}
